{"source": "patent US20120121597A1", "about": "(ROCKEFELLER UNIVERSITY, published 2012)", "binders": {"B1": {"name": "iMabm36 fusion antibody (bispecific antibody, human IgG1, kappa)", "heavy": "QVQLQQSGPEVVKPGASVKMSCKASGYTFTSYVIHWVRQKPGQGLDWIGYINPYNDGTDYDEKFKGKATLTSDTSTSTAYMELSSLRSEDTAVYYCAREKDNYATGAWFAYWGQGTLVTVSSASTKGPSVFPLAPSSKSTSGGTAALGCLVKDYFPEPVTVSWNSGALTSGVHTFPAVLQSSGLYSLSSVVTVPSSSLGTQTYICNVNHKPSNTKVDKKVEPKSCDKTHTCPPCPAPEFEGGPSVFLFPPKPKDTLMISRTPEVTCVVVDVSHEDPEVKFNWYVDGVEVHNAKTKPREEQYNSTYRVVSVLTVLHQDWLNGKEYKCKVSNKALPASIEKTISKAKGQPREPQVYTLPPSRDELTKNQVSLTCLVKGFYPSDIAVEWESNGQPENNYKTTPPVLDSDGSFFLYSKLTVDKSRWQQGNVFSCSVLHEALHSHYTQKSLSLSPGKLEGGGGSGGGGSGGGGSGQVQLVQSGGGLVQPGGSLRLSCAASAFDFSDYEMSWVRQAPGKGLEWIGEINDSGNTIYNPSLKSRVTISRDNSKNTLYLQMNTLRAEDTAIYYCAIYGGNSGGEYWGQGTLVTVSS", "light": "not shown"}, "B2": {"name": "m36 (other)", "VH": "QVQLVQSGGGLVQPGGSLRLSCAASAFDFSDYEMSWVRQAPGKGLEWIGEINDSGNTIYNPSLKSRVTISRDNSKNTLYLQMNTLRAEDTAIYYCAIYGGNSGGEYWGQGTLVTVSS", "notes": "also called m36 polypeptide"}, "B3": {"name": "iMab mutant E95A (CDR-H3 ARAKDNYATGAWFA) (antibody, V domains shown)", "VH": "QVQLQQSGPEVVKPGASVKMSCKASGYTFTSYVIHWVRQKPGQGLDWIGYINPYNDGTDYDEKFKGKATLTSDTSTSTAYMELSSLRSEDTAVYYCARAKDNYATGAWFAYWGQGTLVTVSS", "VL": "DIVMTQSPDSLAVSLGERVTMNCKSSQSLLYSTNQKNYLAWYQQKPGQSPKLLIYWASTRESGVPDRFSGSGSGTDFTLTISSVQAEDVAVYYCQQYYSYRTFGGGTKLEIK"}}, "key": {"[1]": {"molecular_target": "CD4 receptor on the target cells of the virus neutralization assay (human, UniProt P01730 26-458)", "experiment": "cell-based or functional assay"}, "human soluble CD4 (sCD4) [2]": {"molecular_target": "T1, human soluble CD4 (sCD4) (human, UniProt P01730 26-396)", "T1 construct": "also called human CD4", "experiment": "competition ELISA on plate-coated sCD4; competitor: fixed concentration of HRP-labeled iMab"}, "human soluble CD4 (sCD4) [3]": {"molecular_target": "T1, human soluble CD4 (sCD4)", "experiment": "SPR, Biacore-3000"}}, "data": [{"binder": "B1", "values": [{"measurement": "IC50 (read off the curve), virus G23 [Virus (G23]", "setting": "[1]", "result": "~0.2", "unit": "nM"}]}, {"binder": "B2", "values": [{"measurement": "binding result", "setting": "human soluble CD4 (sCD4) [2]", "result": "no binding"}]}, {"binder": "B3", "values": [{"measurement": "Kd", "setting": "human soluble CD4 (sCD4) [3]", "result": 7.7, "unit": "nM"}, {"measurement": "koff", "setting": "human soluble CD4 (sCD4) [3]", "result": 0.0048, "unit": "s⁻¹"}, {"measurement": "kon", "setting": "human soluble CD4 (sCD4) [3]", "result": 620000, "unit": "M⁻¹ s⁻¹"}]}]}
